In US20260152543A1 (KRIYA THERAPEUTICS, published 2026):

Assays:
[1] = molecular target: C4b (Complement Tech) (UniProt P0C0L4); experiment: SPR (Biacore 8K), His-tagged fusion protein captured by anti-His on CM5, C4b analyte 62.5-2000 nM, steady state affinity
[2] = molecular target: C4b (Complement Tech) (UniProt P0C0L4); experiment: BLI (GatorPrime), His-tagged protein on Ni-NTA probe, ligand in 7-point dilution series
[3] = molecular target: C4b (Complement Tech) (UniProt P0C0L4); experiment: BLI (GatorPrime), ratio of KD to that of rhCR1 for C4b
[4] = molecular target: C4b (Complement Tech) (UniProt P0C0L4); experiment: SPR (Biacore 8K), His-tagged receptor captured by anti-His on CM5, C4b analyte 31.25-2000 nM, steady state affinity
[5] = molecular target: T1, iC3b (Complement Tech) (UniProt P01024 23-667; P01024 749-1303; P01024 1321-1663, limits assumed); experiment: SPR (Biacore 8K), His-tagged receptor captured by anti-His on CM5, iC3b analyte 19.5-1250 nM, steady state affinity
T1 construct: iC3b is a multi-chain fragment of C3
Description: The binding of recombinant human CR1, recombinant human CR2, and recombinant CR2CR1 #1 (SEQ ID NO: 22), and recombinant CR2CR1 #7 (SEQ ID NO: 12) protein to their respective ligands C3b, C4b, iC3b, and/or C3d was analyzed using a Biacore 8K SPR system (Cytiva). Histidine-tagged complement receptors and fusion proteins were immobilized onto Series S Sensor Chip CM5 using a His Antibody Capture Kit, with capture levels of 60-470 RU. C3b, C4b, iC3b, and C3d were prepared in 1×HBS-EP buffer (10 mM HEPES, 150 mM NaCl, 3 mM EDTA, and 0.05% v/v Surfactant P20), pH 7.4, at concentrations ranging from 3-16000 nM, and the analytes were injected at a flow rate of 30 μL/min. Binding at 25° C. was monitored for 150 seconds, followed by a dissociation phase of 300 seconds. Chip sensors were regenerated for 60 seconds with 10 mM glycine-HCl buffer, pH 1.5. The data were processed and analyzed with Biacore Insight Evaluation Software; a 1:1 binding model (C3b analyte) or steady state affinity (C4b, iC3b, C3d analytes) was used to calculate the apparent KD value and other kinetic parameters.

[6] = molecular target: T1, iC3b (Complement Tech); experiment: BLI (GatorPrime), His-tagged protein on Ni-NTA probe, ligand in 7-point dilution series
Description: The binding kinetics of CR2-CR1 fusion proteins, human CR1, and human CR2 to their respective ligands were determined using biolayer interferometry (BLI) with a GatorPrime instrument (Gator Bio). Recombinant His-tagged human CR1 (R&D Systems), human CR2 (R&D Systems), or CR2-CR1 fusion proteins (GenScript) were immobilized onto Ni-NTA probes, and the response signals from the protein-loaded probes binding to C3d, iC3b, C3b, or C4b (Complement Tech) in a 7-point dilution series were measured for a 300 second association step, followed by a 300 second dissociation step in assay buffer. To reduce assay background/noise due to non-specific complement protein binding, a double reference was applied using a 0 nM ligand condition (Sample or Reference Probe Blank) and a series of Ni-NTA probes not loaded with protein (Reference Probe) according to the following equation: Sample Response=(Sample Signal−Reference Probe Signal)−(Sample Blank Signal−Reference Probe Blank Signal). The binding affinity constant, KD, and association/dissociation rate constants, kₒₙ/koff, for all binding interactions were calculated using the GatorOne software (Gator Bio).

Sequence of C4b (Complement Tech) (P0C0L4 20-1744): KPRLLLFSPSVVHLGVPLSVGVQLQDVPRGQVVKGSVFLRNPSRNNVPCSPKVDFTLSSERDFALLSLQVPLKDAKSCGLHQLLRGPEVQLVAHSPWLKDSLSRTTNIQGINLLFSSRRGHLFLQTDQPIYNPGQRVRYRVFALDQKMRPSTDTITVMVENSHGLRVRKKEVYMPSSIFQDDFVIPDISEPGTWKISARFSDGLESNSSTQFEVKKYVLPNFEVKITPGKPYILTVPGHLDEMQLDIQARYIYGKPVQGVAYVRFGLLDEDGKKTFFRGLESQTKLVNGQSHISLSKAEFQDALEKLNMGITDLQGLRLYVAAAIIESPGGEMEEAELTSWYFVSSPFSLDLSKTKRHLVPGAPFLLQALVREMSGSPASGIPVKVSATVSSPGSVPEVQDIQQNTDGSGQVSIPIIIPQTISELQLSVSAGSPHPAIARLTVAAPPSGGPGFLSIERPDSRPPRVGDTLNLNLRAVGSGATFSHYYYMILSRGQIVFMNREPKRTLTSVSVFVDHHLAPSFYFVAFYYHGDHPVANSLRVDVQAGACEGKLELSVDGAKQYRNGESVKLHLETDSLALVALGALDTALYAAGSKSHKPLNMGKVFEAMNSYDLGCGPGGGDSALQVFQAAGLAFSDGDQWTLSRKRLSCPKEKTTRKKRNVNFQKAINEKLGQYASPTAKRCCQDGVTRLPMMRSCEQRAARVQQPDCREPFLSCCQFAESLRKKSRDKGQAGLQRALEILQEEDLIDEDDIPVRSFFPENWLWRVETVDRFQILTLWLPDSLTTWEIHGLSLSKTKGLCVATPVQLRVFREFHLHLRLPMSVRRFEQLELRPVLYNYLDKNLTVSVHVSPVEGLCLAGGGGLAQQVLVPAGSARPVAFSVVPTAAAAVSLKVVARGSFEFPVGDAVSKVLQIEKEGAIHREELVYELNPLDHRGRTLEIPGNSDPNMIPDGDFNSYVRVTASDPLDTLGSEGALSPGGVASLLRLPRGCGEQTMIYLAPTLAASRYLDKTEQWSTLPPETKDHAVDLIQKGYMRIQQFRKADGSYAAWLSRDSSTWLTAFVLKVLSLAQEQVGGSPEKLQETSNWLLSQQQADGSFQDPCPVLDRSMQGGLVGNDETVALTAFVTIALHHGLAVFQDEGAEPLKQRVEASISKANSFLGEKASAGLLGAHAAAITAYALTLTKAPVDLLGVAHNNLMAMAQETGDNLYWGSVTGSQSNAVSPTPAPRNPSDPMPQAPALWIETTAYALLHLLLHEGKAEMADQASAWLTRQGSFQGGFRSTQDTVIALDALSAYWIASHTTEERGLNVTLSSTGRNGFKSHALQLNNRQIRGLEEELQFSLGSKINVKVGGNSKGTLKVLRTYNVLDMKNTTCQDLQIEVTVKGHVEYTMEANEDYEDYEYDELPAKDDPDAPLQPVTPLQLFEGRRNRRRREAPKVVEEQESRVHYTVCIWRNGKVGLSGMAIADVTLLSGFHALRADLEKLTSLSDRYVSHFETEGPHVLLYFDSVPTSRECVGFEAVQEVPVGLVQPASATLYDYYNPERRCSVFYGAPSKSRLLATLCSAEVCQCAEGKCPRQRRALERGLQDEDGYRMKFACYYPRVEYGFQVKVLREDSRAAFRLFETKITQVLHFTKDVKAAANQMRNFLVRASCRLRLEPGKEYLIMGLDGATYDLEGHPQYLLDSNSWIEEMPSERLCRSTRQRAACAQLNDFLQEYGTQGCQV
T1 sequence (P01024 23-667 limits assumed, chain 1 of 3): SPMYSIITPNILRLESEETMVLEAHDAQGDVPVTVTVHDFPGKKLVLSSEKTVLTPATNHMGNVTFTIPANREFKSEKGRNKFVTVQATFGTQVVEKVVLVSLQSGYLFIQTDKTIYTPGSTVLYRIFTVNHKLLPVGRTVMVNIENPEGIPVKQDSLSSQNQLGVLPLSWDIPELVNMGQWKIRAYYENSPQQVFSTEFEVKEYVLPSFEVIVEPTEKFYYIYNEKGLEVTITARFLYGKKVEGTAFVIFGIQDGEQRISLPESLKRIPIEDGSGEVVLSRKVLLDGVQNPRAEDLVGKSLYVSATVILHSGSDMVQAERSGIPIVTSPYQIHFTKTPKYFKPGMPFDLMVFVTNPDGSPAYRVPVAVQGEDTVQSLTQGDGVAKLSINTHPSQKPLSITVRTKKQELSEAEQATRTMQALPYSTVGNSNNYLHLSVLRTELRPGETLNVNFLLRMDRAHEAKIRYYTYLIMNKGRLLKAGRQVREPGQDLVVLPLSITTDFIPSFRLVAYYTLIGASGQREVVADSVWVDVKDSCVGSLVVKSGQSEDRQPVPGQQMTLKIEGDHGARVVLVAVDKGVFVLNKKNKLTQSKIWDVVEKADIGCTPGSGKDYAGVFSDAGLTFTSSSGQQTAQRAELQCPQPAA
T1 sequence (P01024 749-1303 limits assumed, chain 2 of 3): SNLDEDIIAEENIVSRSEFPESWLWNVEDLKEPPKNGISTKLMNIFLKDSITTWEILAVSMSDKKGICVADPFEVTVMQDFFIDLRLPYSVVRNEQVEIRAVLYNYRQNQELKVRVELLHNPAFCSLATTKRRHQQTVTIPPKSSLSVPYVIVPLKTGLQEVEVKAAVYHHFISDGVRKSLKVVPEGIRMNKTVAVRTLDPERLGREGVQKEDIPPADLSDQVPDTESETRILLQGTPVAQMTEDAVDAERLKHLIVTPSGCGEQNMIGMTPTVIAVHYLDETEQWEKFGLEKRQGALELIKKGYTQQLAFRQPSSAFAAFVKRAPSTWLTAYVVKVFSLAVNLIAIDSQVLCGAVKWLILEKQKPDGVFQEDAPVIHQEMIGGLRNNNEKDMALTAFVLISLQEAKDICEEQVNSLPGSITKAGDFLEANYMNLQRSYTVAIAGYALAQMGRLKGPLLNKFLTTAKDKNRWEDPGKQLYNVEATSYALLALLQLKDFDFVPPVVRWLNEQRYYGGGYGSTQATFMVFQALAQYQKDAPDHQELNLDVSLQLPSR
T1 sequence (P01024 1321-1663 limits assumed, chain 3 of 3): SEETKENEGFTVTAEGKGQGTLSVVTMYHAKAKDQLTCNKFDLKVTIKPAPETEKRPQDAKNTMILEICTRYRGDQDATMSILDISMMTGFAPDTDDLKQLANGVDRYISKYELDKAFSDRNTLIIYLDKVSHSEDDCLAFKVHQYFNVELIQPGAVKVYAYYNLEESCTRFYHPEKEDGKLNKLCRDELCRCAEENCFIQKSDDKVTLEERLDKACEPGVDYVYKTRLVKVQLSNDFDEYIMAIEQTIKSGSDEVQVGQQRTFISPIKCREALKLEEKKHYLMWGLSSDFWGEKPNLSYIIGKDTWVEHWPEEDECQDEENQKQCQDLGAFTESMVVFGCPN

Row | Kd [1] [nM] | Kd [2] [nM] | koff [2] [s⁻¹] | kon [2] [M⁻¹ s⁻¹] | KD vs. hCR1 KD (X (fold of hCR1 KD)) [3] | Kd [4] [nM] | Kd [5] [nM] | Kd [6] [nM] | koff [6] [s⁻¹] | kon [6] [M⁻¹ s⁻¹] | Molecule
1 | 21100 | 12.4 | 0.000694 | 56000 | 0.94 | – | – | – | – | – | recombinant CR2CR1 #1 (CR2-CR1 fusion protein, CR2 SCR1-4 fused to CR1 SCR1-10), His-tagged
2 | – | 13.2 | 0.000586 | 44300 | – | 3010 | – | – | – | – | Recombinant His-tagged human CR1 (R&D Systems) (from UniProt P17927 42-1971) (receptor)
3 | – | 10.5 | 0.000663 | 63300 | 0.8 | – | – | – | – | – | recombinant CR2CR1 #7 (CR2-CR1 fusion protein, CR2 SCR1-4 fused to CR1 SCR1-4, 7-11, 14-17), His-tagged
4 | – | – | – | – | – | – | 439 | 6.51 | 0.000965 | 148000 | Recombinant His-tagged human CR2 (R&D Systems) (receptor, UniProt P20023 21-971, looked up, Bought protein; also called rhCR2; hCR2; not shown: His tag) ISCGSPPPILNGRISYYSTPIAVGTVIRYSCSGTFRLIGEKSLLCITKDKVDGTWDKPAPKCEYFNKYSSCPEPIVPGGYKIRGSTPYRHGDSVTFACKTNFSMNGNKSVWCQANNMWGPTRLPTCVSVFPLECPALPMIHNGHHTSENVGSIAPGLSVTYSCESGYLLVGEKIINCLSSGKWSAVPPTCEEARCKSLGRFPNGKVKEPPILRVGVTANFFCDEGYRLQGPPSSRCVIAGQGVAWTKMPVCEEIFCPSPPPILNGRHIGNSLANVSYGSIVTYTCDPDPEEGVNFILIGESTLRCTVDSQKTGTWSGPAPRCELSTSAVQCPHPQILRGRMVSGQKDRYTYNDTVIFACMFGFTLKGSKQIRCNAQGTWEPSAPVCEKECQAPPNILNGQKEDRHMVRFDPGTSIKYSCNPGYVLVGEESIQCTSEGVWTPPVPQCKVAACEATGRQLLTKPQHQFVRPDVNSSCGEGYKLSGSVYQECQGTIPWFMEIRLCKEITCPPPPVIYNGAHTGSSLEDFPYGTTVTYTCNPGPERGVEFSLIGESTIRCTSNDQERGTWSGPAPLCKLSLLAVQCSHVHIANGYKISGKEAPYFYNDTVTFKCYSGFTLKGSSQIRCKADNTWDPEIPVCEKETCQHVRQSLQELPAGSRVELVNTSCQDGYQLTGHAYQMCQDAENGIWFKKIPLCKVIHCHPPPVIVNGKHTGMMAENFLYGNEVSYECDQGFYLLGEKKLQCRSDSKGHGSWSGPSPQCLRSPPVTRCPNPEVKHGYKLNKTHSAYSHNDIVYVDCNPGFIMNGSRVIRCHTDNTWVPGVPTCIKKAFIGCPPPPKTPNGNHTGGNIARFSPGMSILYSCDQGYLLVGEALLLCTHEGTWSQPAPHCKEVNCSSPADMDGIQKGLEPRKMYQYGAVVTLECEDGYMLEGSPQSQCQSDHQWNPPLAVCRSR
